# How the values were obtained:
# mCherry-NIX (WT) = mCherry-NIX (WT) (UniProt O60238); assay: immunoblot for dimers; immunoblot analysis of WT or OMP25C hybrids of BNIP3 and NIX expressed in B/N DKO cells
# mCherry-BNIP3 (WT) = assay: as above
# Chain of mCherry-NIX (WT), O60238 1-219 (natural protein; other documents disagree on this pair) (O60238 whole entry): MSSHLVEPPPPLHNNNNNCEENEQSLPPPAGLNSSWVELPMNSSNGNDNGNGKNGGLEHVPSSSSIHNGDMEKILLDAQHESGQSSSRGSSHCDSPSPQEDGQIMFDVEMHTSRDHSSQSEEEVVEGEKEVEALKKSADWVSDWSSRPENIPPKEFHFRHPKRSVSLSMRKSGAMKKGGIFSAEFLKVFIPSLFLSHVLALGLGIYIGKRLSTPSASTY
# Chain of mCherry-BNIP3 (WT) (natural protein) (Q12983 whole entry): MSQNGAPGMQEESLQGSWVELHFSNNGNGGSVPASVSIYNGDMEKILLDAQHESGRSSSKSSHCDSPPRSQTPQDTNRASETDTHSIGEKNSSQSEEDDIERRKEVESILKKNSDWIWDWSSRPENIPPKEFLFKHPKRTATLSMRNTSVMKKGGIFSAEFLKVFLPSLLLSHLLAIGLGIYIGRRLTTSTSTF
stoichiometry N (mCherry-NIX (WT)),stoichiometry N (mCherry-BNIP3 (WT)),Substance
2,,"mCherry-NIX (WT), O60238 1-219 (natural protein; other documents disagree on this pair)"
,2,mCherry-BNIP3 (WT) (natural protein)
